Laboratory results taken from publication PMC9723501 (Nucleic Acids Research, 2022).

What was measured:
ITC = target: the molecule itself; experiment: ITC
SEC-MALS = target: the molecule itself; experiment: SEC-MALS

B1: PV 2C NΔ39 (poliovirus 2C protein lacking the amino-terminal 39 residues) (domain or fragment)
chain: ARDKLEFVTKLRQLEMLENQISTIHQSCPSQEHQEILFNNVRWLSIQSKRFAPLYAVEAKRIQKLEHTINNYIQFKSKHRIEPVCLLVHGSPGTGKSVATNLIARAIAERENTSTYSLPPDPSHFDGYKQQGVVIMDDLNQNPDGADMKLFCQMVSTVEFIPPMASLEEKGILFTSNYVLASTNSSRISPPTVAHSDALARRFAFDMDIQVMNEYSRDGKLNMAMATEMCKNCHQPANFKRCCPLVCGKAIQLMDKSSRVRYSIDQITTMIINERNRRSNIGNCMEALFQ
- Kd (ITC): ~400 nM
- stoichiometry N (SEC-MALS): 2
